According to paper PMC4780765, “Role of Interaction and Nucleoside Diphosphate Kinase B in Regulation of the Cystic Fibrosis Transmembrane Conductance Regulator Function by cAMP-Dependent Protein Kinase A” (PLoS ONE, 2016):

B1: nucleoside diphosphate kinase B (natural protein, human (endogenous in 16HBE14o-), UniProt P22392 1-152, looked up)
chain: MANLERTFIAIKPDGVQRGLVGEIIKRFEQKGFRLVAMKFLRASEEHLKQHYIDLKDRPFFPGLVKYMNSGPVVAMVWEGLNVVKTGRVMLGETNPADSKPGTIRGDFCIQVGRNIIHGSDSVKSAEKEISLWFKPEELVDYKSCAHDWVYE
notes: nucleoside diphosphate kinase B (NDPK-B, NM23-H2), endogenous in the human bronchial epithelial cell line 16HBE14o-; also called NDPK-B; NDPK B; source: endogenous, 16HBE14o- cells (membrane and cytosol fractions, lysates)
B2: human recombinant nucleoside diphosphate kinase B isoform (natural protein)
chain: ANLERTFIAIKPDGVQRGLVGEIIKRFEQKGFRLVAMKFLRASEEHLKQHYIDLKDRPFFPGLVKYMNSGPVVAMVWEGLNVVKTGRVMLGETNPADSKPGTIRGDFCIQVGRNIIHGSDSVKSAEKEISLWFKPEELVDYKSCAHDWVYE
notes: human recombinant nucleoside diphosphate kinase B (NDPK-B, NM23-H2); 16 kDa on the gel; also called NDPK-B; purified NDPK-B; source: recombinant, purified; prepared and provided by Professor Ioan Lascu

Columns and labels:
[1] = biological target: T1, cystic fibrosis transmembrane conductance regulator (human (endogenous in 16HBE14o-), UniProt P13569 1-1480); test: co-IP; CFTR or NDPK-B immunoprecipitates from 16HBE14o- membranes; cells untreated, treated with FSK (10 μM)/IBMX (100 μM) for 30 min, or with PKI (100 nM) or H-89 (1 μM) for 5 min before FSK/IBMX; settings: partners not purified
T1 construct: CFTR, endogenous in the wild type human bronchial epithelial cell line 16HBE14o-; band at 175 kDa; also called CFTR; ABCC7; source: endogenous, 16HBE14o- cells (membrane fraction, lysates, immunoprecipitates)
T1 sequence (P13569 whole entry): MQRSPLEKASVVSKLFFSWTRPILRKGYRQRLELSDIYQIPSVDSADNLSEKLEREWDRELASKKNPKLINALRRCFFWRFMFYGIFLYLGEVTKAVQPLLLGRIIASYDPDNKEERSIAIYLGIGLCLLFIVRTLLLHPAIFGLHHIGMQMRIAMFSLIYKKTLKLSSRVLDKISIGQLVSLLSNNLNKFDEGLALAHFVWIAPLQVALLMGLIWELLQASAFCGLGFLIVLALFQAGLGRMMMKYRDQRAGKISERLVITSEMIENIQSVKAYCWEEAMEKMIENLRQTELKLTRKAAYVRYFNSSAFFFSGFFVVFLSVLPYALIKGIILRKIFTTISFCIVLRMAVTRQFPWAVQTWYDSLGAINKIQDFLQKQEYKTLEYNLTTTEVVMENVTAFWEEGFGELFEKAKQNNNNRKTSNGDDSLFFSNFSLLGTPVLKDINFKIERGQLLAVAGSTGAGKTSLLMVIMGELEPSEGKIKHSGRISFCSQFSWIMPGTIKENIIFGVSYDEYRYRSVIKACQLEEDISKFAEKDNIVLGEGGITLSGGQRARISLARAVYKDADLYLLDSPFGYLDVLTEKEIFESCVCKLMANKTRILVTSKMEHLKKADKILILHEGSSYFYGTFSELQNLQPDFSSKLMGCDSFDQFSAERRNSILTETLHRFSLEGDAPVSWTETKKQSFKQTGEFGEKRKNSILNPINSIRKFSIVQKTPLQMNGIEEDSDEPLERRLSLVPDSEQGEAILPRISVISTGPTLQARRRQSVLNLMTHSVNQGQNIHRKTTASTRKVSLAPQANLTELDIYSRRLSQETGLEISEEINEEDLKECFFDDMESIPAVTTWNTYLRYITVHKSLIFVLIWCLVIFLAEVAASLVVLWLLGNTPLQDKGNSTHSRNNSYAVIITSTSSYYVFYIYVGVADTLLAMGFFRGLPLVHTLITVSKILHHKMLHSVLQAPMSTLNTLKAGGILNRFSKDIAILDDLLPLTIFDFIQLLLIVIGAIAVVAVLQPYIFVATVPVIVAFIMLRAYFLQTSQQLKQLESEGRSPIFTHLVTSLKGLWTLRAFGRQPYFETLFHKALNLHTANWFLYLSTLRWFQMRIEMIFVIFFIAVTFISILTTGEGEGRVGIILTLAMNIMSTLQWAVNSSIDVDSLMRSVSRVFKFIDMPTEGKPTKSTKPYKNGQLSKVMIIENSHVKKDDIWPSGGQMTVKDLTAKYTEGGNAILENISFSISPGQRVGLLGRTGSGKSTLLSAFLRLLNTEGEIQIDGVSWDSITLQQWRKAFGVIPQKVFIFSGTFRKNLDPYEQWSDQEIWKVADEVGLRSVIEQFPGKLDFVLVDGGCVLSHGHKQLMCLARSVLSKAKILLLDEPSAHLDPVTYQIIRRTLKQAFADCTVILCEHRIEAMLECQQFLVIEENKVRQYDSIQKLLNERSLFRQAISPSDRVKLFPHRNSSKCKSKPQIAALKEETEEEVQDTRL

[2] = biological target: T1, cystic fibrosis transmembrane …; test: far-Western, overlay or dot blot; blot of SDS-PAGE-separated 16HBE14o- membrane proteins (100 μg) overlaid with 16HBE14o- cytosol proteins (0.5 mg) in TBS with 5% milk, 60 min at room temperature, without or with cAMP, 8-Br-cAMP or dioctanoyl-cAMP (100 μM); probed for NDPK-B; settings: partners not purified
[3] = biological target: T1, cystic fibrosis transmembrane …; test: far-Western, overlay or dot blot; blot of a CFTR immunoprecipitate or of 16HBE14o- membrane proteins, 100 μg, overlaid with 1 μg recombinant NDPK-B without or with cAMP or 8-Br-cAMP (100 μM); probed for NDPK-B; settings: one partner purified

Binder | fold increase of co-immunoprecipitation with FSK/IBMX over untreated cells [1] | fold increase of NDPK-B staining at 175 kDa with dioctanoyl cAMP (100 μM) over overlay without cAMP [2] | fold increase of NDPK-B staining at 175 kDa with 8-Br-cAMP (100 μM) over overlay without cAMP [3]
B1 | 3 fold | 20 fold | 
B2 |  |  | 20 fold
